Measurements taken from patent publication US20250270287A1 (KEROS THERAPEUTICS, published 2025).

T1: ActRIIB (SEQ ID NO: 31) Fc protein (human, UniProt Q13705 20-134)
T1 construct: also called ActRII-Fc; wild-type extracellular ActRIIB; not shown: linker (if any) and Fc domain
T1 sequence: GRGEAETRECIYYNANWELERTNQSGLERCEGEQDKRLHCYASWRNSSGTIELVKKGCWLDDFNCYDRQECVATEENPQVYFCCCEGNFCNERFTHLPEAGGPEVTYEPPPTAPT

T2: ActRIIB-A1 (SEQ ID NO: 120) chimera-Fc protein (Homo sapiens (Human), UniProt Q13705 28-134)
T2 construct: Tested as chimera-Fc protein; not shown: linker (if any) and Fc domain
T2 sequence: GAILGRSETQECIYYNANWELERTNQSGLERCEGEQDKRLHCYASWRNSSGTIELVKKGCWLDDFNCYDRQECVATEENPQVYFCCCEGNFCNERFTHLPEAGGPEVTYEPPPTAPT


Columns and labels:
[1] = molecular target: T1, ActRIIB (SEQ ID NO: 31) Fc protein; assay: SPR (Biacore 8K), Fc protein captured on anti-human IgG, ligand injected
Experimental: (§1) The Cytiva Biacore 8k was used to measure the kinetics of the interactions between the ActRII- and chimera-Fc proteins and Activin A/Activin B/growth differentiation factor 8 (GDF-8)/GDF-11/BMP-9/BMP-10. Series S CM4 Sensor Chips were immobilized with anti-human capture antibody using the reagents and protocol in the Biacore Human Antibody Capture Kit (GE Life Sciences). Briefly, anti-human IgG was diluted to 25 μg/mL in immobilization buffer. The carboxylated surface of the sensor was activated by injecting a mixture of EDC and NHS. The anti-human IgG was injected into the activated sensor chip flow cells at 10 μL/min for a total of 7 minutes until the chip reached an immobilization level of 3000 resonance units (RU). Ethanolamine was injected to deactivate the sensor surfaces. The chip has 8 flow cells to be used for binding analysis, each with an in-line reference surface to subtract instrument noise and non-specific binding to the sensor chip. The ActRII- and chimera-Fc proteins were captured in their own flow cell to allow for a maximum analyte binding response of 20-30 RU. This was done by injecting 10-20 μL of the ActRII- and chimera-Fc proteins into the flow cells at a concentration of 2 μg/mL until 60-90 RU was captured. Ligand at a single concentration was injected at […] for 60 seconds and then allowed to dissociate under buffer flow for no less than 5 minutes. After the cycle completed, captured protein was stripped from the chip with an injection of 3 M magnesium chloride, the regeneration buffer provided with the Biacore Human Antibody Capture Kit. Each ligand was injected in a concentration series, including a buffer only 0 nM concentration to serve as a double reference for subtracting out instrument noise. The data were analyzed using the Biacore Insight Evaluation Software.

[2] = molecular target: T2, ActRIIB-A1 (SEQ ID NO: 120) chimera-Fc …; assay: as above
Experimental: as §1

| Binder | Kd [1] [pM] | Kd [2] [pM] |
| --- | --- | --- |
| BMP-9 (ligand, UniProt Q9UK05 320-429, looked up, also called bone morphogenetic protein 9) SAGAGSHCQKTSLRVNFEDIGWDSWIIAPKEYEAYECKGGCFFPLADDVTPTKHAIVQTLVHLKFPTKVGKACCVPTKLSPISVLYKDDMGVPTLKYHYEGMSVAECGCR | 35.8 | 15.1 |
| BMP-10 (ligand, UniProt O95393 317-424, looked up) NAKGNYCKRTPLYIDFKEIGWDSWIIAPPGYEAYECRGVCNYPLAEHLTPTKHAIIQALVHLKNSQKASKACCVPTKLEPISILYLDKGVVTYKFKYEGMAVSECGCR | 10.5 | 17.5 |
| GDF-11 (ligand, UniProt O95390 299-407, looked up, also called growth and differentiation factor 11) NLGLDCDEHSSESRCCRYPLTVDFEAFGWDWIIAPKRYKANYCSGQCEYMFMQKYPHTHLVQQANPRGSAGPCCTPTKMSPINMLYFNDKQQIIYGKIPGMVVDRCGCS | < 1 | < 1 |
